Where two headings read alike, the source gives them in different places.
Tests used:
[1] = target: T1, DR4G89: Human HLA-DRA1*01:02/DRB1*04:01 ECD with hemagglutinin peptide HA_304-318 (human); experiment: MSD ECL; antigen coated; mAb 0.2 µg/ml
T1 construct: also called DRG89; HLA-DR4 with HA_304-318
Experimental: (§1) Select generated antibodies were characterized for their binding to soluble HLA-DR, HLA-DQ or HLA-DP antigens with various peptides attached to the N-terminus of the beta chains. […] The soluble antigens of DR, DP and DQ were coated on MSD standard plates (Meso Scale Discovery, Cat. No. L15XA-3) at 5 μg/ml at 4° C. overnight. […] Binding to DR antigens was tested with four antibody concentrations ranging from 0.04-5 μg/ml. Binding to DP and DQ antigens was tested with one concentration at 5 μg/ml. After three washes, SulfoTag anti-human/NHP Kappa secondary antibody (Meso Scale Discovery, Cat. No. D20TF-6) was added and incubated for 1 hour. After another three washes, the plates were read under MSD reader (Meso Scale Discovery), and electrochemiluminescence (ECL) was measured.

[2] = target: T2, DR4G93: Human HLA-DRA1*01:02/DRB1*01:01 ECD with hemagglutinin peptide HA_304-318 (human); experiment: MSD ECL; antigen coated; mAb 0.2 µg/ml
T2 construct: also called HLA-DR1 with HA_304-318
Experimental: as §1

[3] = target: T3, DR4G119: Human HLA-DRA1*01:02/DRB1*10:01 ECD with hemagglutinin peptide HA_304-318 (human); experiment: MSD ECL; antigen coated; protocol of Example 3
T3 construct: also called DRB1*10:01 HA

[4] = target: T4, DR4G104: Human HLA-DRA1*01:02/DRB1*04:02 ECD with hemagglutinin peptide HA_304-318 (human); experiment: MSD ECL; antigen coated; protocol of Example 3
T4 construct: also called DRB1*04:02 HA

[5] = target: T5, DR4G103: Human HLA-DRA1*01:02/DRB1*15:01 ECD with hemagglutinin peptide HA_304-318 (human); experiment: MSD ECL; antigen coated; protocol of Example 3;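 for ECL signal: antibodies tested at 0.04–5 µg/ml on plate-coated soluble HLA-DR carrying peptide on the beta chain N-terminus, bound antibody detected by SulfoTag anti-human kappa secondary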
T5 construct: also called DRB1*15:01 HA

[6] = target: T1, DR4G89: Human HLA-DRA1*01:02/DRB1*04:01 …; experiment: MSD ECL; antigen coated
[7] = target: T2, DR4G93: Human HLA-DRA1*01:02/DRB1*01:01 …; experiment: MSD ECL; antigen coated
[8] = target: T4, DR4G104: Human …; experiment: MSD ECL; antigen coated
[9] = target: T5, DR4G103: Human …; experiment: MSD ECL; antigen coated
[10] = target: T1, DR4G89: Human HLA-DRA1*01:02/DRB1*04:01 …; experiment: MSD ECL; antigen coated; mAb 0.2 µg/ml; remark: listed apart in the source
[11] = target: T2, DR4G93: Human HLA-DRA1*01:02/DRB1*01:01 …; experiment: MSD ECL; antigen coated; mAb 0.2 µg/ml; remark: listed apart in the source
[12] = target: T1, DR4G89: Human HLA-DRA1*01:02/DRB1*04:01 …; experiment: SPR ProteOn XPR36; mAb amine-coupled, antigen as analyte; 25 °C
[13] = target: T2, DR4G93: Human HLA-DRA1*01:02/DRB1*01:01 …; experiment: as above

B1: DR4B6 (antibody, V domains shown)
VH: QIQLVQSGPELKKPGETVKISCKASGFTFTNYGMNWVKQAPGKGLKWMGWINTYTREPTYADDFKGRFAFSLETSASTAYLQINNLKNEDTAKYFCARDITAVVPTGFDYWGQGTTLTVSS
VL: DIQMTQSPASLSVSVGETVTITCRASENIYSNLAWYRQKQGKSPQLLVFAASNLADGVPSRFSGSGSGTQYSLKINSLQSEDFGDYYCQHFWTTPWAFGGGTNLEIK
notes: also called L243 re-engineered as IgG2sigma
**Q.** With B1 as the binder, how does the ECL signal [1] read?
**A.** 1.34e+06 ECL

**Q.** What about the ECL signal [2] of the same binder?
**A.** 1.32e+06 ECL

**Q.** What about the ECL signal [3] of the same binder?
**A.** 580000 ECL

**Q.** What about the ECL signal [4] of the same binder?
**A.** 415000 ECL

**Q.** What about the ECL signal [5] of the same binder?
**A.** 142000 ECL

B2: DR4B33 (antibody, human IgG2, kappa, V domains shown)
VH: EVQLVQSGAEVKKPGESLKISCKGSGYSFDSAYINWVRQMPGKGLEWMGIIRPGDSRTRYSPSFQGQVTISADKSISTAYLQWSSLKASDTAVYYCARDGYYFVGSIIYYGMDVWGQGTLVTVSS
VL: not shown
notes: also called VH DR4H58 / VL PH9L4
**Q.** Does B2 bind [6]?
**A.** binds

**Q.** Does B2 bind [7]?
**A.** binds

B3: DR4B4 (antibody, V domains shown)
VH: QVQLKESGPGLVAPSQSLSITCTISGFSLTSYGVHWVRQPPGKGLEWLVVIWSDGSTTYNSALKSRLSISKDNSKSQVFLKMNSLQTDDTAIYYCASHYGSTLAFASWGHGTLVTVSA
VL: DIQMTQSPASLSASVGETVTIICRASVNIYSYLAWYQQKQGKSPQLLVYNAKILAEGVPSRFSGSGSGTQFSLKINSLQPEDFGSYYCQHHYGPFTFGSGTKLEIK
notes: also called Lym-1 re-engineered as IgG2sigma
**Q.** Does B3 bind [8]?
**A.** no binding

**Q.** Does B3 bind [9]?
**A.** no binding

**Q.** What about the ECL signal [1] of the same binder?
**A.** 1.28e+06 ECL

**Q.** What about the ECL signal [2] of the same binder?
**A.** 888000 ECL

**Q.** What about the ECL signal [3] of the same binder?
**A.** 572000 ECL

**Q.** What about the ECL signal [4] of the same binder?
**A.** 451 ECL

**Q.** What about the ECL signal [5] of the same binder?
**A.** 287 ECL

B4: DR4B98 (antibody, human IgG2, kappa, V domains shown)
VH: QVQLVQSGAEVKKPGSSVKVSCKASGGTFKSYYIHWVRQAPGQGLEWMGGIAPIYGTAYYAQKFQGRVTITADESTSTAYMELSSLRSEDTAVYYCARDASWARAYGFDYWGQGTLVTVSS
VL: EIVLTQSPATLSLSPGERATLSCRASQSVSSYLAWYQQKPGQAPRLLIYDASNRATGIPARFSGSGSGTDFTLTISSLEPEDFAVYYCQQRSNWPLTFGQGTKVEIKR
notes: also called VH DR4H50 / VL PH9L3
**Q.** What does the source list for B4?
**A.** ECL signal [1]: 775000 ECL; ECL signal [2]: 140000 ECL; ECL signal [3]: 94700 ECL; ECL signal [4]: 421000 ECL; ECL signal [5]: 34700 ECL

B5: DR4B30 (antibody, human IgG2, kappa, V domains shown)
VH: EVQLVQSGAEVKKPGESLKISCKGSGYSFTSDWIGWVRQMPGKGLEWMGIIRPGDSDTYYSPSFQGQVTISADKSISTAYLQWSSLKASDTAVYYCARESYYYVGVRYRPSYYFDYWGQGTLVTVSS
VL: EIVLTQSPATLSLSPGERATLSCRASQSVSSYLAWYQQKPGQAPRLLIYDASNRATGIPARFSGSGSGTDFTLTISSLEPEDFAVYYCQQRSNWPLTFGQGTKVEIKR
notes: also called VH DR4H39 / VL PH9L3
**Q.** Which results are given for B5?
**A.** ECL signal [1]: 1.13e+06 ECL; ECL signal [2]: 1.07e+06 ECL; ECL signal [10]: 1.13e+06 ECL; ECL signal [11]: 1.07e+06 ECL

B6: DR4B78 (antibody, human IgG2, kappa, V domains shown)
VH: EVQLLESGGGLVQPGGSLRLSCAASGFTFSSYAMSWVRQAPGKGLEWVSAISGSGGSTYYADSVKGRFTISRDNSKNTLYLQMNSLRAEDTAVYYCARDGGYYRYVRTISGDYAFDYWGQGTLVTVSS
VL: EIVLTQSPATLSLSPGERATLSCRASQSVSSYLAWYQQKPGQAPRLLIYDASNRATGIPARFSGSGSGTDFTLTISSLEPEDFAVYYCQQRSNWPLTFGQGTKVEIKR
notes: also called VH DR4H62 / VL PH9L3
**Q.** Which ECL signal [10] does the source give for B6 here?
**A.** 979000 ECL

**Q.** What about the ECL signal [11] of the same binder?
**A.** 1.06e+06 ECL

B7: DR4B22 (antibody, human IgG2, kappa, V domains shown)
VH: EVQLLESGGGLVQPGGSLRLSCAASGFTFSSYAMNWVRQAPGKGLEWVSAISGSGGYTNYADSVKGRFTISRDNSKNTLYLQMNSLRAEDTAVYYCARDGGYYRYVYRYPGDYAFGYWGQGTLVTVSS
VL: EIVLTQSPATLSLSPGERATLSCRASQSVSSYLAWYQQKPGQAPRLLIYDASNRATGIPARFSGSGSGTDFTLTISSLEPEDFAVYYCQQRSNWPLTFGQGTKVEIKR
notes: also called VH DR4H16 / VL PH9L3
**Q.** Which results are given for B7?
**A.** ECL signal [10]: 1.01e+06 ECL; ECL signal [11]: 896000 ECL

B8: DR4B70 (antibody, human IgG2, kappa, V domains shown)
VH: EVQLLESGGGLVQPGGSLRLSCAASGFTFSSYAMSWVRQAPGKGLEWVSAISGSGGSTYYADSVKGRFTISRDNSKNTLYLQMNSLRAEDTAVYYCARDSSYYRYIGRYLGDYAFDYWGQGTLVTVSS
VL: EIVLTQSPATLSLSPGERATLSCRASQSVSSYLAWYQQKPGQAPRLLIYDASNRATGIPARFSGSGSGTDFTLTISSLEPEDFAVYYCQQRSNWPLTFGQGTKVEIKR
notes: also called VH DR4H29 / VL PH9L3
**Q.** Which ECL signal [10] does the source give for B8 here?
**A.** 888000 ECL

**Q.** What about the ECL signal [11] of the same binder?
**A.** 972000 ECL

B9: DR4B127 (antibody, human IgG2, kappa, V domains shown)
VH: QVQLVQSGAEVKKPGSSVKVSCKASGGTFKSYYIHWVRQAPGQGLEWMGGIRPISGNAEYAQKFQGRVTITADESTSTAYMELSSLRSEDTAVYYCARDASYYRNYGFDYWGQGTLVTVSS
VL: EIVLTQSPATLSLSPGERATLSCRASQSVSSYLAWYQQKPGQAPRLLIYDASNRATGIPARFSGSGSGTDFTLTISSLEPEDFAVYYCQQRSNWPLTFGQGTKVEIKR
notes: also called VH DR4H7 / VL PH9L3
**Q.** How did the ECL signal [1] turn out when B9 was run?
**A.** 1.03e+06 ECL

**Q.** And the ECL signal [2]?
**A.** 918000 ECL

**Q.** What about the ECL signal [3] of the same binder?
**A.** 1.24e+06 ECL

**Q.** And the ECL signal [4]?
**A.** 1.27e+06 ECL

**Q.** What about the ECL signal [5] of the same binder?
**A.** 334000 ECL

**Q.** And the Kd [12]?
**A.** 9.19 nM

**Q.** And the koff [12]?
**A.** 0.000155 s⁻¹

**Q.** And the kon [12]?
**A.** 16800 M⁻¹ s⁻¹

**Q.** And the Kd [13]?
**A.** 47.7 nM

**Q.** And the koff [13]?
**A.** 0.00092 s⁻¹

**Q.** And the kon [13]?
**A.** 19300 M⁻¹ s⁻¹

B10: DR4B38 (antibody, human IgG2, kappa, V domains shown)
VH: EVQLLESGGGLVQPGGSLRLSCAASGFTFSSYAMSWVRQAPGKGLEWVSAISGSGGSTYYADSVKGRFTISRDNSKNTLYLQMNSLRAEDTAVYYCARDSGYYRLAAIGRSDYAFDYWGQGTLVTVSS
VL: EIVLTQSPATLSLSPGERATLSCRASQSVSSYLAWYQQKPGQAPRLLIYDASNRATGIPARFSGSGSGTDFTLTISSLEPEDFAVYYCQQRSNWPLTFGQGTKVEIKR
notes: also called VH DR4H56 / VL PH9L3
**Q.** With B10 as the binder, how does the ECL signal [10] read?
**A.** 1.22e+06 ECL

**Q.** And the ECL signal [11]?
**A.** 1.12e+06 ECL

B11: DR4B5 (antibody, V domains shown)
VH: QVQLQESGPGLVKPSETLSLTCTVSGFSLTNYGVHWVRQSPGKGLEWIGVKWSGGSTEYNAAFISRLTISKDTSKNQVSLKLNSLTAADTAVYYCARNDRYAMDYWGQGTLVTVSS
VL: DIQMTQSPSSLSASVGDRVTITCRASENIYSYLAWYQQKPGKAPKLLVSNAKTLAEGVPSRFSGSGSGKQFTLTISSLQPEDFATYYCQHHYGNSYPFGQGTKLEIK
notes: also called apolizumab (1D10) re-engineered as IgG2sigma
**Q.** Does B11 bind [8]?
**A.** no binding

**Q.** Does B11 bind [9]?
**A.** no binding

**Q.** And the ECL signal [1]?
**A.** 1.26e+06 ECL

**Q.** And the ECL signal [2]?
**A.** 1.3e+06 ECL

**Q.** What about the ECL signal [3] of the same binder?
**A.** 132000 ECL

**Q.** And the ECL signal [4]?
**A.** 825 ECL

**Q.** And the ECL signal [5]?
**A.** 329 ECL

— patent US20180355043A1 (Janssen / Centocor, published 2018)
